Source: patent US10562935B2, “Stapled peptides and uses thereof” (London Health Sciences Centre Research Inc., priority 2015, dated 2020)
Bridges are numbered along the chain shown (N, C = ends).

Legend:
[1] = Circular dichroism (CD) spectroscopy of linear and stapled peptides in water or 40% TFE/water (Example 3); type: physicochemical; details: for [0]208 mean residue ellipticity: λ = 208 nm; for [0]222 mean residue ellipticity: λ = 222 nm
Method: CD spectra were obtained on a Jasco J-810 spectropolarimeter and recorded in the range of 180-260 nm. Peptide solutions were prepared with a 0.1M phosphate buffer solution to a concentration of 0.5 mM. The measurements were performed in quartz cuvettes with a path length of 1 mm and a scanning speed of 10-50 nm/min. Five individual data points were averaged by the instrument in order to obtain the reported CD spectrum. The measurements were carried out at 20° C. A blank solution of 0.1M phosphate buffer solution was run before every measurement in order to baseline correct for any UV-interference observed from the buffer.
CD data for the 14- and 15-mer peptides containing HABD2 (VSKLRSQLVKRKQN, SEQ ID NO: 2) and HABD1 (NLKQKIKHVVKLKDE, SEQ ID NO: 4) and cyclized derivatives thereof in water or 40% TFE/water are provided below in Tables 8 (water) and 9 (40% TFE/water). Tables 8 and 9 provide the mean residue ellipicity ([θ] deg cm^2 dmol^−1) at λ=222 and 208 nm for each peptide and ratios of ellipticities at 222/208. Each of the peptides was acetylated at its amino terminus and amidated at its carboxy terminus.
CD data for linear peptides having the sequences […] (SEQ ID NO: 5) and […] (SEQ ID NO: 6) and cyclized derivatives thereof in water or 40% TFE/water are provided below in Tables 12 (water) and 13 (40% TFE/water). Tables 12 and 13 provide the mean residue ellipicity ([0] deg cm^2 dmol^−1) at λ=222 and 208 nm for each peptide and ratios of ellipticities at 222/208. Each of the peptides was acetylated at its amino terminus and amidated at its carboxy terminus.
Circular Dichroism (CD) spectroscopy is a tool that is used to study the secondary structure characteristics of a compound. Peptides and proteins can fold into organized structures, such as alpha helices and beta sheets, which are the result of complex hydrogen bonding and other interactions between amino acid side chains, as well as adopt a random coil formation, which lacks much of the organization of the other two structures. The CD spectrum of an alpha helix is characterized by two local minima at 208 nm and 222 nm. The ratio of the values of the molar ellipticities at these wavelengths ([θ]222/[θ]208) is a strong indication of the relative helicity of a compound; a compound is more helical when the ratio of these two values approaches 1.0. Synthetic constraints introduced to the peptide backbone can force a peptide chain to increase its helical character. These constraints can be introduced by staples, of varying types, which allow cyclization of the peptide backbone to take place.

[2] = Direct HA-binding ELISA of biotinylated peptides on HA coated plates (Example 4); set-up: key to HA binding: absorbance (color) read at 450 nm; details: for HA binding: as repeated in tables 16, 18, 20; for HA direct binding (OD): optical density, summary tables 15, 17, 19
Method: Each of these peptides was biotinylated at its amino-terminus, and an AEEA spacer was included to separate the peptide sequence from the biotin molecule.
HA coated plates were purchased (ECHELON). Peptides were dissolved in 2 mM PBS to constant molarity, aliquoted and stored at −20° C. until used in assays. 7 kDa biotin-labeled RHAMM (SEQ ID NO: 1) was synthesized and used as a positive control in these assays. Biotin labeled peptides were added to the HA coated wells (n=3 replicates/peptide) at either 0.8 or 0.08 μM and then incubated with shaking overnight at 4° C. Wells were washed free of excess unbound peptides using 200 μl PBS (4 times). 100 μl of Streptavidin-HRP was then added to each well and the plate was incubated at room temperature for 1 hr. The plate was then washed with 200 μl PBS/well 4 times and TMB Liquid Substrate System for ELISA (Sigma) was added to each well, incubated for 5-10 min at room temperature and color read at 450 nm Plate Reader (BioTek, SYNERGY H4, Hybrid Reader).
Direct HA-binding results for the biotinylated equivalents of compounds 132 and 150-161 are show in FIG. 39, and results for compounds 265-268 and 275-278 are shown in FIG. 40.

[3] = Circular dichroism (CD) spectroscopy of HABD2 peptides in Milli-Q water (Example 1); type: physicochemical; details: for [θ]222/[θ]208 ratio of ellipticities / fH fraction helicity / Molar ellipticity [θ]192 / Molar ellipticity [θ]208 / Molar ellipticity [θ]222: 0.5 mM in Milli-Q water; for fH fraction helicity: equations 1-3; for α-helical character by CD (in words): Milli-Q water; for Molar ellipticity [θ]192: λ = 192 nm; for Molar ellipticity [θ]208: λ = 208 nm; for Molar ellipticity [θ]222: λ = 222 nm
From the text: In addition, a large mean residue ellipticity indicates greater α-helical character. […] This was predicted to be the case, as there is a lack of contributing residues that might form a hydrophobic core, thereby helping to stabilize the secondary structure of the linear peptide. For this reason, bridges were introduced into the peptides. […] The differences in α-helicity induced by the bridges placed at different points within each peptide may be due to the differences in their primary sequences. Specifically, two amino acids (at the i and i+4 position) have to be replaced in order to form the lactam bridge. In compound 133, leucine was replaced at both the i and i+4 position; while in compound 136, glutamine was replaced at the i position and aspartic acid was replaced at i+4. Leucine and glutamine are proposed to be helix-stabilizing residues.
A larger portion of the RHAMM protein was used as the reference for α-helical character of the truncated peptides. 7 kDa RHAMM (SEQ ID NO: 1) is a mini protein that is composed of 62 amino acids, which was derived from the C-terminus of the full-length RHAMM sequence. It contains both HABDs, and is predicted to have almost complete α-helix shape, similar to that of native full-length RHAMM.
A peptide's α-helicity can be quantified using equations 1-3: fH=[([θ]obs222−[θ]c)/([θ]max222−[θ]c)] (Equation 1) [θ]c=2220+53T (Equation 2) [θ]max222=(−44000+250T)(1−k/N) (Equation 3) where fH is the ratio of the average number of helical hydrogen bonds divided by the total number of hydrogen bonds that can be found in a peptide, T is the temperature in degrees Celsius, N is the number of residues in the peptide and k is a constant of ellipticity when 100% of the structure is α-helical (3 for carboxyamidated peptides).
Milli-Q water was chosen as the solvent in which all peptides would be dissolved for CD spectroscopy, as it is a UV invisible solvent, which is a requirement of the analytical technique, and it represents RHAMM's natural environment in the body. Luo and Baldwin [18] stated that when peptides are taken out of their native protein sequence, they usually show little to no helical formation in water alone. For this reason, TFE/H2O solutions are commonly used in studies to observe the α-helix characteristics, and may improve the helical nature of the peptides observed here. However, a helix-stabilizing solvent, such as TFE, would not be as contextually relevant, as there are no solvent stabilizing effects in the body. Thus use of TFE would tend to produce skewed results and not be representative of the peptide's natural behavior.

[4] = [θ]222/[θ]208 ratio in water, summary tables 15, 17, 19
[5] = as repeated in tables 16, 18, 20

For “Ac-(cyclo-6,10)-VSKLR[KQLVE]RKQN-NH2 (Ac-VSKLRKQLVERKQN-NH2; lactam 6-10; SMILES CC(=O)N[C@H](C(=O)N[C@@H](CO)C(=O)N[C@@H](CCCCN)C(=O)N[C@@H](CC(C)C)C(=O)N[C@@H](CCCNC(=N)N)C(=O)N[C@H]1CCCCNC(=O)CC[C@@H](C(=O)N[C@@H](CCCNC(=N)N)C(=O)N[C@@H](CCCCN)C(=O)N[C@@H](CCC(N)=O)C(=O)N[C@@H](CC(N)=O)C(N)=O)NC(=O)[C@H](C(C)C)NC(=O)[C@H](CC(C)C)NC(=O)[C@H](CCC(N)=O)NC1=O)C(C)C) [Compound 155]”, the “[θ]222/[θ]208 ratio of ellipticities” value [1, 4] was 0.37, the “[θ]222/[θ]208 ratio of ellipticities” value [1, 5] was 0.37 and the “[0]222/[0]208 ratio of ellipticities” value ([1]; in 40% TFE/water) was 0.75. The “[0]222/[0]208 ratio of ellipticities” value ([1]; in water) was 0.37, the “[0]208 mean residue ellipticity” value ([1]; in 40% TFE/water) was -1.71E+04 deg cm^2 dmol^−1 and the “[0]208 mean residue ellipticity” value ([1]; in water) was -5.30E+03 deg cm^2 dmol^−1. For the same molecule, the “[0]222 mean residue ellipticity” value ([1]; in 40% TFE/water) was -1.28E+04 deg cm^2 dmol^−1, the HA binding [2] was 0.05 and the “HA direct binding (OD)” value [2] was 0.05 OD.

With “Ac-(cyclo-5,9)-VSKL[KSQLE]KRKQN-NH2 (Ac-VSKLKSQLEKRKQN-NH2; lactam 5-9; SMILES CC(=O)N[C@H](C(=O)N[C@@H](CO)C(=O)N[C@@H](CCCCN)C(=O)N[C@@H](CC(C)C)C(=O)N[C@H]1CCCCNC(=O)CC[C@@H](C(=O)N[C@@H](CCCCN)C(=O)N[C@@H](CCCNC(=N)N)C(=O)N[C@@H](CCCCN)C(=O)N[C@@H](CCC(N)=O)C(=O)N[C@@H](CC(N)=O)C(N)=O)NC(=O)[C@H](CC(C)C)NC(=O)[C@H](CCC(N)=O)NC(=O)[C@H](CO)NC1=O)C(C)C) [Compound 154]” the “[θ]222/[θ]208 ratio of ellipticities” value [1, 4] was 0.20, the “[θ]222/[θ]208 ratio of ellipticities” value [1, 5] was 0.20 and the “[0]222/[0]208 ratio of ellipticities” value ([1]; in 40% TFE/water) was 0.75. The “[0]222/[0]208 ratio of ellipticities” value ([1]; in water) was 0.20, the “[0]208 mean residue ellipticity” value ([1]; in 40% TFE/water) was -1.18E+04 deg cm^2 dmol^−1 and the “[0]208 mean residue ellipticity” value ([1]; in water) was -4,95E+03 deg cm^2 dmol^−1. The “[0]222 mean residue ellipticity” value ([1]; in 40% TFE/water) was -8.78E+03 deg cm^2 dmol^−1, the “[0]222 mean residue ellipticity” value ([1]; in water) was -9.74E+02 deg cm^2 dmol^−1 and the HA binding [2] was 0.045. The “HA direct binding (OD)” value [2] was 0.045 OD.

For “H-(cyclo-5,9)-VSKL[ESQLK]KRKQN-NH2 (H-VSKLESQLKKRKQN-NH2; lactam 5-9; SMILES CC(C)C[C@@H]1NC(=O)[C@H](CCC(N)=O)NC(=O)[C@H](CO)NC(=O)[C@@H](NC(=O)[C@H](CC(C)C)NC(=O)[C@H](CCCCN)NC(=O)[C@H](CO)NC(=O)[C@@H](N)C(C)C)CCC(=O)NCCCC[C@@H](C(=O)N[C@@H](CCCCN)C(=O)N[C@@H](CCCNC(=N)N)C(=O)N[C@@H](CCCCN)C(=O)N[C@@H](CCC(N)=O)C(=O)N[C@@H](CC(N)=O)C(N)=O)NC1=O) [Compound 134]”, the “[θ]222/[θ]208 ratio of ellipticities” value [3] was 0.57, the fH fraction helicity [3] was 0.22 and the “α-helical character by CD (in words)” value [3] was “increase in α-helix structure”. The “Molar ellipticity [θ]192” value [3] was 1002.14 deg cm^2 dmol^−1 residue^−1, the “Molar ellipticity [θ]208” value [3] was −7685.97 deg cm^2 dmol^−1 residue^−1 and the “Molar ellipticity [θ]222” value [3] was −4403.89 deg cm^2 dmol^−1 residue^−1.

For “H-(cyclo-7,11)-VSKLRS[ELVKK]KQN-NH2 (H-VSKLRSELVKKKQN-NH2; lactam 7-11; SMILES CC(C)C[C@H](NC(=O)[C@H](CCCCN)NC(=O)[C@H](CO)NC(=O)[C@@H](N)C(C)C)C(=O)N[C@@H](CCCNC(=N)N)C(=O)N[C@@H](CO)C(=O)N[C@H]1CCC(=O)NCCCC[C@@H](C(=O)N[C@@H](CCCCN)C(=O)N[C@@H](CCC(N)=O)C(=O)N[C@@H](CC(N)=O)C(N)=O)NC(=O)[C@H](CCCCN)NC(=O)[C@H](C(C)C)NC(=O)[C@H](CC(C)C)NC1=O) [Compound 136]”, the “[θ]222/[θ]208 ratio of ellipticities” value [3] was 0.30, the fH fraction helicity [3] was 0.14 and the “α-helical character by CD (in words)” value [3] was “did not seem to stabilize”. The “Molar ellipticity [θ]192” value [3] was 1437.80 deg cm^2 dmol^−1 residue^−1, the “Molar ellipticity [θ]208” value [3] was −5084.93 deg cm^2 dmol^−1 residue^−1 and the “Molar ellipticity [θ]222” value [3] was −1568.07 deg cm^2 dmol^−1 residue^−1.

B1: 7 kDa RHAMM: mini protein of 62 amino acids derived from the C-terminus of full-length RHAMM, contains both HABDs; reference for α-helical character (protein, listed as Mus musculus)
chain: RDSYAQLLGHQNLKQKIKHVVKLKDENSQLKSEVSKLRSQLVKRKQNELRLQGELDKALGIR
For B1, the “[θ]222/[θ]208 ratio of ellipticities” value [3] was 0.46, the fH fraction helicity [3] was 0.18 and the “Molar ellipticity [θ]192” value [3] was 1839.66 deg cm^2 dmol^−1 residue^−1. The “Molar ellipticity [θ]208” value [3] was −7553.76 deg cm^2 dmol^−1 residue^−1 and the “Molar ellipticity [θ]222” value [3] was −4046.60 deg cm^2 dmol^−1 residue^−1.
